One data set has as its target T1, DrHU T37A (Deinococcus radiodurans R1 (ATCC13939), UniProt Q9RZ89 1-122, T37A).
T1 sequence: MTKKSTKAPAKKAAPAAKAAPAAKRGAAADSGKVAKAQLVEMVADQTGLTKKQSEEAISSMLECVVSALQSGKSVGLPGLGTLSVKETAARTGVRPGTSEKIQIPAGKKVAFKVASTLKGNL
Kind of data set: EMSA; 10 mM Mg2+; EMSA: 50 mM NaCl, 20 mM Tris-HCl pH 8.0, 0.1 mg/ml BSA, 3 mM DTT, 0.1 mM EDTA, 10% glycerol, 10 mM MgCl2, 50 nM DNA, 0-3200 nM DrHU, room temperature 20 min; 22% native PAGE in 1x TB. To be noted: protein: recombinant; tags: N-terminal His-MBP (pET28a-HMT), removed by TEV; chain copies: 2; label: 5'-FAM; blunt. On the technique in general: In EMSA bound probe runs differently from free probe, usually more slowly.

In another data set the target is T2, DrHU T37E (Deinococcus radiodurans R1 (ATCC13939), UniProt Q9RZ89 1-122, T37E).
T2 sequence: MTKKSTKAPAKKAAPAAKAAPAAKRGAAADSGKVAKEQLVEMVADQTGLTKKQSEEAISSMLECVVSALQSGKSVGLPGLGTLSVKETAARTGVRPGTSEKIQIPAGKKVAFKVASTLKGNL
Described as above. To be noted: protein: recombinant; tags: N-terminal His-MBP (pET28a-HMT), removed by TEV; chain copies: 2; label: 5'-FAM; blunt.

B1: Duplex DNA (24bp) (dsDNA)
DNA 1: TCAATTATGTCAATGACATAAAAG
DNA 2: CTTTTATGTCATTGACATAATTGA
As a reminder, the Kd is the concentration at which binding is half-saturated. Regarding B1, the binding result in the data set with DrHU T37A was “no binding”. For the same molecule, the dissociation constant Kd with DrHU T37E was found to be 1180 ± 95.9 nM.

B2: Duplex DNA (36bp) (dsDNA)
DNA 1: GCAGAGTCAATTATGTCAATGACATAAAAGGCTCAG
DNA 2: CTGAGCCTTTTATGTCATTGACATAATTGACTCTGC
As to B2, in the data set with DrHU T37A, the binding result is “no binding”. In addition, in the data set with DrHU T37E, the Kd worked out at 457 ± 62.9 nM.

B3: Duplex DNA (48bp) (dsDNA)
DNA 1: TAACAAGCAGAGTCAATTATGTCAATGACATAAAAGGCTCAGGCCTTC
DNA 2: GAAGGCCTGAGCCTTTTATGTCATTGACATAATTGACTCTGCTTGTTA
Regarding B3, the binding result with DrHU T37A is recorded as “no binding”. Besides, the Kd with DrHU T37E turned out to be 389 ± 56 nM.

Source of the values: PMC9900698, “Phosphorylation Regulation of a Histone-like HU Protein from Deinococcus radiodurans”.
